This is an account of results in paper PMC5773536.

The target of assay [1] is A3B4 subunit of glycinin accumulated in transgenic soybean seeds (post-translationally processed mature form) (Glycine max (soybean)). Description: SEC; soluble extract of dry mature transgenic seeds on a Hi-Load 16/600 Superdex 200 pg column in potassium phosphate buffer (35 mM potassium phosphate, pH 7.6, 0.4 M NaCl), 1.0 mL/min; fractions analysed by SDS-PAGE and western blot with anti-A3B4 serum; size by comparison with molecular weight standards. Background: In gel filtration, larger molecules generally elute earlier.

For assay [2], the target named is recombinant luminal domain of GmVSR (soybean vacuolar sorting receptor) (Glycine max (soybean)). Kind of assay: SPR; GmVSR(LU) amine-coupled on a CM5 chip (1000-1200 RU), BIACORE2000; GST fusion proteins injected 180 s, eluted with salt buffer 180 s, 25 °C, 30 uL/min; control flow cell subtracted; three independent experiments.

The term stoichiometry N denotes a count of units in the complex or per binding partner. For “A3B4 subunit of glycinin accumulated in transgenic soybean seeds (post-translationally processed mature form) (natural protein)”, in assay [1], the stoichiometry N came to 6.

B1: GST fused with the 10-residue C-terminal peptide of A1aB1b (peptide)
chain: PQESQKRAVA
Usually Kd stands for a measure of binding affinity in units of concentration. With B1, the Kd in assay [2] turned out to be 98 nM.
